The target in assay [1] is T1, HER2 (form in the assay not stated) (human, UniProt P04626 23-652, limits assumed). Briefly: method and HER2 form not stated.
Assay [2] deals with T1, HER2 (form in the assay not stated). Briefly: method not stated.
In assay [3] the target is T2, HER2 (ErbB2/Neu) on the surface of HER2-overexpressing cancer cells (human, UniProt P04626 23-1255).
T2 construct: whole, on cells; also called HER2 on BT474, SkBr3, SkOv3 cells
Briefly: flow cytometry on intact BT474 cells, Alexa488-labelled agent. (A flow cytometer gives signals particle by particle.)
Protocol: Cells were detached by collagenase and EDTA for 5 min at 37° C. The solution was quenched by addition of medium and centrifuged at 300 g for 3 min. Cells were washed twice in warm PBS. […] Internalization was blocked by incubation in PBS containing 0.2% NaN₃ and 1% BSA for 30 min at 37° C.
For each time point, a 1 ml aliquot of cells is withdrawn and subjected to FACS. Since the applied concentrations of the labeled ligand conjugates are very low, and since the time resolution of the measurement is to be maintained to ensure the accuracy of the on-rate determination, the samples are processed without further washing. For each time point, at least 10⁴ intact cells (gated as a uniform population on a FSC/SSC scatter plot) are counted, and the MFI (mean fluorescence intensity) is recorded.
Corresponding to 100 μl cell suspension, samples were washed twice in 1 ml PBS (0.2% NaN₃, 1% BSA) and centrifuged at 600 g for 30 sec at room temperature. Cells were resuspended in 1 ml PBS (0.2% NaN₃, 1% BSA) containing 100 nM of equivalent unlabeled binding agent. The dissociation reaction was incubated for the indicated times (15, 30, 60, 120, 180 and 240 min) at room temperature while continuously stirring in the dark. Dissociation was stopped by placing the cell pellets on ice. Each sample was washed once with 1 ml cold PBS.

In assay [4] the target is T2, HER2 (ErbB2/Neu) on the surface of …. Briefly: dissociation from BT474 cells by flow cytometry in the presence of a competing DARPin.

As usually defined, the Kd is the equilibrium constant for the complex coming apart. Higher therefore signals lower affinity. As a reminder, the koff is the first-order rate constant of dissociation. A low value points to a long-lived complex. Broadly, the kon is the rate constant with which the complex forms. Higher therefore signals fast association.

B1: DARPin 926 (designed binder)
chain: MRGSHHHHHHGSDLGKKLLEAARAGQDDEVRILMANGADVNAKDFYGITPLHLAAAYGHLEIVEVLLKHGADVNAHDWNGWTPLHLAAKYGHLEIVEVLLKHGADVNAIDNAGKTPLHLAAAHGHLEIVEVLLKYGADVNAQDKFGKTAFDISIDNGNEDLAEILQKLN
notes: Member of the 9XX collection
In assay [1], B1 displayed an equilibrium dissociation constant (Kd) of 1.4 nM, a koff of 0.0001 s⁻¹ and a kon of 70000 M⁻¹ s⁻¹. The molecule further yielded a Kd in assay [2] of 1 nM.

B2: DARPin H14 (designed binder)
chain: GSDLGKKLLEAARAGQDDEVRILMANGADVNATDIHGHTPLHLAAAMGHLEIVEVLLKNGADVNANDWRGFTPLHLAALNGHLEIVEVLLKNGADVNATDTAGNTPLHLAAWFGHLEIVEVLLKNGADVNAQDKFGKTAFDISIDNGNEDLAEILQKLN
In assay [1], B2 displayed a Kd of 0.2 nM, a dissociation rate constant (koff) of 0.0001 s⁻¹ and a kon of 410000 M⁻¹ s⁻¹. In assay [3], this molecule registered a dissociation constant Kd of 0.97 nM, a koff of 0.000179 s⁻¹ and a kon of 196000 M⁻¹ s⁻¹.

B3: 9_29-(G4S)4-G3 (designed binder)
chain: MRGSHHHHHHGSDLGKKLLEAARAGQDDEVRILMANGADVNAHDFYGITPLHLAANFGHLEIVEVLLKHGADVNAFDYDNTPLHLAADAGHLEIVEVLLKYGADVNASDRDGHTPLHLAAREGHLEIVEVLLKNGADVNAQDKFGKTAFDISIDNGNEDLAEILQKLGGGGSGGGGSGGGGSGGGGSRSDLGKKLLEAARAGQDDEVRILMANGADVNAKDEYGLTPLYLATAHGHLEIVEVLLKNGADVNAVDAIGFTPLHLAAFIGHLEIAEVLLKHGADVNAQDKFGKTAFDISIGNGNEDLAEILQKLN
modifications: fluorescently labelled in FIG. 18A (dye and site not carried by the letters)
notes: 20 amino acid (G4S)4 linker; also called 9_20_G
As for B3, the “fold lower off-rate than monovalent G3” value in assay [4] amounted to 10 fold.

B4: DARPin G3 (designed binder)
chain: GSDLGKKLLEAARAGQDDEVRILMANGADVNAKDEYGLTPLYLATAHGHLEIVEVLLKNGADVNAVDAIGFTPLHLAAFIGHLEIAEVLLKHGADVNAQDKFGKTAFDISIGNGNEDLAEILQKLN
With B4, the affinity in assay [2], expressed as Kd, was 0.09 nM.

B5: DARPin 929 (designed binder)
chain: MRGSHHHHHHGSDLGKKLLEAARAGQDDEVRILMANGADVNAHDFYGITPLHLAANFGHLEIVEVLLKHGADVNAFDYDNTPLHLAADAGHLEIVEVLLKYGADVNASDRDGHTPLHLAAREGHLEIVEVLLKNGADVNAQDKFGKTAFDISIDNGNEDLAEILQKLN
modifications: Alexa Fluor-488 label in the flow-cytometry kinetics (attachment site not given)
notes: Member of the 9XX collection
In assay [1], B5 had a dissociation constant (Kd) of 3.8 nM, an off-rate (koff) of 0.0008 s⁻¹ and a kon of 200000 M⁻¹ s⁻¹. In assay [2], this molecule came in with a Kd of 1 nM. In addition, in assay [3], the Kd came to 33.5 nM, the dissociation rate constant (koff) worked out at 0.00221 s⁻¹ and the kon turned out to be 69000 M⁻¹ s⁻¹.

B6: 9_26-(G4S)4-G3 (designed binder)
chain: MRGSHHHHHHGSDLGKKLLEAARAGQDDEVRILMANGADVNAKDFYGITPLHLAAAYGHLEIVEVLLKHGADVNAHDWNGWTPLHLAAKYGHLEIVEVLLKHGADVNAIDNAGKTPLHLAAAHGHLEIVEVLLKYGADVNAQDKFGKTAFDISIDNGNEDLAEILQKLGGGGSGGGGSGGGGSGGGGSRSDLGKKLLEAARAGQDDEVRILMANGADVNAKDEYGLTPLYLATAHGHLEIVEVLLKNGADVNAVDAIGFTPLHLAAFIGHLEIAEVLLKHGADVNAQDKFGKTAFDISIGNGNEDLAEILQKLN
modifications: fluorescently labelled in the dissociation assay; dye and site not stated
notes: 20 amino acid (G4S)4 linker; also called 6_20_G
Regarding B6, the “fold lower off-rate than monovalent G3” value in assay [4] was 10 fold.

B7: G3-(G4S)4-9_26 (designed binder)
chain: MRGSHHHHHHGSDLGKKLLEAARAGQDDEVRILMANGADVNAKDEYGLTPLYLATAHGHLEIVEVLLKNGADVNAVDAIGFTPLHLAAFIGHLEIAEVLLKHGADVNAQDKFGKTAFDISIGNGNEDLAEILQKLGGGGSGGGGSGGGGSGGGGSRSDLGKKLLEAARAGQDDEVRILMANGADVNAKDFYGITPLHLAAAYGHLEIVEVLLKHGADVNAHDWNGWTPLHLAAKYGHLEIVEVLLKHGADVNAIDNAGKTPLHLAAAHGHLEIVEVLLKYGADVNAQDKFGKTAFDISIDNGNEDLAEILQKLN
modifications: fluorescently labelled in FIG. 18A (dye and site not carried by the letters)
notes: Opposite orientation of 6_20_G; also called G_20_6
For B7, the “fold lower off-rate than monovalent G3” value in assay [4] stood at 10 fold.

The values above are taken from patent US20190127481A1 (UNIVERSIT T Z RICH, published 2019).
